# Results from article PMC2816707.
# Substitutions are numbered along the chain they refer to. Numbers in names are those of the source.
# B1: rabbit IgG Fc-hVEGF (human VEGF165) fusion protein, wild type, P15692-4 G88A (protein)
# chain: APMAEGGGQNHHEVVKFMDVYQRSYCHPIETLVDIFQEYPDEIEYIFKPSCVPLMRCGGCCNDEGLECVPTEESNITMQIMRIKPHQAQHIGEMSFLQHNKCECRPKKDRARQENPCGPCSERRKHLFVQDPQTCKCSCKNTDSRCKARQLELNERTCRCDKPRR
# B2: rabbit IgG Fc-hVEGF (human VEGF165) fusion protein, wild type, P15692-4 I46A (protein)
# chain: B1 chain with I46A, A88G
# Biological target: humanized EBV321
# Assay: ELISA
# Conditions: chain shown with the change; point at the highest antibody concentration, about 13.3 nM (read from x axis); VEGF captured on ELISA plate; parent: est. 0.66; read off a plot
row,Binder,response
1,B1,0.73 OD (405nm)
2,B2,0.7 OD (405nm)
